What is called Kd is the constant that tells how readily two partners part at equilibrium.

The target in assay [1] is T1, human TIGIT on Jurkat cells (TIGIT/NFAT reporter Jurkat cells, BPS Bioscience #60538); Promega TIGIT Effector … (human, UniProt Q495A1 22-244).
T1 sequence (looked up): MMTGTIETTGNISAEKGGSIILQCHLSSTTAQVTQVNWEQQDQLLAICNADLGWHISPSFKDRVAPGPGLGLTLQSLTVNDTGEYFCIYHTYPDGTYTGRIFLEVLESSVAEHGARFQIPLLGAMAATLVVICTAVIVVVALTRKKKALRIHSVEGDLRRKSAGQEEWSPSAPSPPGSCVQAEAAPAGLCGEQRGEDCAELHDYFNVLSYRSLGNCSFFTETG
In words: cell-based or functional assay.

Assay [2] has as its target T2, his-tagged human TIGIT (Acro Biosystems #TIT-H52H3) (human, UniProt Q495A1 22-141).
T2 construct: Bought protein; also called His-tagged-TIGIT (human); not shown: his tag
T2 sequence (looked up): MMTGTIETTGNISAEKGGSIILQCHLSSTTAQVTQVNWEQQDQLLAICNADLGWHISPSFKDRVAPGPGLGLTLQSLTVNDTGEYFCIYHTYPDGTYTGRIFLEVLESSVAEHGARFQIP
The experiment in a line: ELISA, coated His-TIGIT, 1 ug/ml. For orientation: ELISA stands for enzyme-linked immunosorbent assay.

For assay [3], the target named is T3, his-tagged murine TIGIT (Acro Biosystems #TIT-M52E6) (murine, UniProt P86176 29-148, limits assumed).
T3 construct: Bought protein; also called mouse his-tagged TIGIT; not shown: his tag
T3 sequence (looked up): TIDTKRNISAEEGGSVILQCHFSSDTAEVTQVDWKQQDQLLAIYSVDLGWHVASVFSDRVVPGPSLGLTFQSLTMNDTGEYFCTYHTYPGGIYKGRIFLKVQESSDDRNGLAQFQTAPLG
In words: ELISA, coated His-TIGIT, 1 ug/ml.

Assay [4] addresses T4, His-tagged cynomolgus monkey TIGIT (Acro Biosystems #TIT-05223) (cynomolgus monkey, UniProt A0A7N9I9V4 89-209).
T4 construct: Bought protein; also called cyno TIGIT; cynomolgus TIGIT; not shown: His tag
The experiment in a line: ELISA, coated His-TIGIT, 1 ug/ml.

For assay [5], the target named is T1, human TIGIT on Jurkat cells (TIGIT/NFAT …). The experiment in a line: flow cytometry, TIGIT/NFAT Jurkat cells, 10 ug/ml. A general note: Flow cytometry measures light scatter and fluorescence of single cells or particles in a stream.
For assay [6], the target named is T2, his-tagged human TIGIT (Acro Biosystems …). In words: SPR (Carterra LSA), scFv-Fc captured, His-TIGIT analyte. Summed up: (§1)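 SPR: scFv-Fc from supernatants (diluted 30-fold in HBSTE) captured on anti-human Fc-coupled HC30M chip; His-tagged TIGIT injected as 1:2 dilution series. Kinetic affinities fitted from sensorgrams.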
Assay [7] deals with T4, His-tagged cynomolgus monkey TIGIT …. The assay is described as above. Summed up:
as §1

For assay [8] the target is unchanged. In words: SPR (Carterra LSA), scFv-Fc captured, His-TIGIT analyte; repeat. On the procedure: (§2) Binding affinities of anti-TIGIT antibodies to human, cyno, and murine TIGIT were measured by Surface Plasmon Resonance (SPR) on a Carterra LSA instrument. Goat anti-human Fc antibody was amine coupled to a HC30M chip. ScFv-Fc supernatants were diluted 30-fold with HBSTE and were captured by the anti-human Fc coupled HC30M chip. A 1:2 dilution series of his-tagged human TIGIT, starting at 400 nM, was injected onto the chip for binding. A dilution series was also carried out for cyno TIGIT and murine TIGIT. Data were analyzed using the Carterra™ Kinetics software.

Assay [9] has as its target T3, his-tagged murine TIGIT (Acro …). The description is as above. The protocol: as §2
Assay [10] has the same target. In words: SPR (Carterra LSA), scFv-Fc captured, His-TIGIT analyte. In a few lines:
as §1

T4 sequence (A0A7N9I9V4 entry or part of it): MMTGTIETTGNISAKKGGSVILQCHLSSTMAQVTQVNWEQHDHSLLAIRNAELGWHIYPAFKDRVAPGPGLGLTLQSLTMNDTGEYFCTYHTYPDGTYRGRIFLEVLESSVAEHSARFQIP

B1: 43586p2.A03 (scFv, V domains shown)
VH: EVQLLESGGGLVQPGGSLRLSCAASGFTFTSYAMSWVRQAPGKGLEWVAGISYIGRNEYYADSVKGRLTISRDNSKNTLYLQMNNLRAEDTAIYYCAKHLTGGTTDYYYYGMDVWGQGTTVTVSS
VL: QSVLTQPPSASGTPGQRVTISCSGSTSNIGTSRYVHWYQQLPGTAPKLLIYFDSQRPSGVPDRFSASKSGTSASLAISGLQSEDEADYYCATWDDSLSAWVFGGGTKLTVL
On to B1, for which, in assay [1], the “max. signal (% of 22G2)” value is 109 % of 22G2. The “Elisa OD450” value turned out to be 1.96 OD450 in assay [2], 0.046 OD450 in assay [3] and 1.41 OD450 in assay [4]. For the same molecule, the MFI in assay [5] is 9070 MFI. Also, the Kd came out at 0.386 nM in assay [6], 63 nM in assay [7] and 33 nM in assay [8].

B2: 43645p1.H10 (scFv, V domains shown)
VH: EVQLLESGGGLVQAGGSLRLSCAASGFTFDDYVMTWVRQAPGKGLEWVSLINWSGDRTYYADSVKGRFTISRDNSKNTLYLQMNSLRAEDTAVYYCVKHNLNYYYGMDVWGQGTTVTVSS
VL: QSVLTQPPSVSGTPGQRVTISCSGTISNVGNKYVSWYQQVPGTAPKLLIDYNQRPSGVPDRFSGSQSGTSASLTISGLQSEDEADYYCATWDDSLKGWVFGGGTKLTVL
For B2, the “max. signal (% of 22G2)” value in assay [1] was 109 % of 22G2. The entries for the “Elisa OD450” value in assay [2], in assay [3] and in [4] were 2 OD450, 1.7 OD450 and 1.85 OD450, respectively. In assay [5], this molecule displayed an MFI of 10000 MFI. Besides, the Kd in assay [6] amounted to 0.128 nM; in [9], 0.595 nM; in assay [8], 0.181 nM.

B3: 43645p1.B2 (scFv, V domains shown)
VH: EVQLLESGGGLVQPGGSLRLSCATSGFTFSSYWMSWVRQAPGKGLEWVSGIHISDSTYYADSVKGRFTISRDNSKNTLYLQMNSLRAEDTAVYYCAKGHTVLQYGMDVWGQGTTVTVSS
VL: QSGLTQPPSASGTPGQRVTISCSGDISNTRNNYVSWYQQLPGTAPKLLIYGNHQRPSGVPDRFSGSKSATSASLAISGLQSEDEADYHCGTWDNTLNAWVFGGGTKLTVL
Regarding B3, in assay [1], the “max. signal (% of 22G2)” value was 111 % of 22G2. For the same molecule, the “Elisa OD450” value is 2.42 OD450 in assay [2], 1.85 OD450 in assay [3] and 1.61 OD450 in assay [4]. Besides, the MFI in assay [5] is 8950 MFI. The Kd in [6] was 0.0464 nM; in [9] it was 42 nM; in assay [8], 0.93 nM.

B4: 43645p1.E3 (scFv, V domains shown)
VH: EVQLLESGGGLVQPGGSLRLSCAASGFTFSSYAMSWVRQAPGKGLEWVSAIYFDGSIYDADSVKGRFTISRDNSKNTLYLQMNSLRDEDTAVYYCAKSHTVLQYGMDVWGQGTTVTVSS
VL: QSVLTQPPSASGTPGQRVTISCSGVTSNIRNSYVSWYQQLPGTAPKLLIYGNDQRPSGVPDRFSGSKSGTSASLAISGLQSEDEADYYCGTWDNTLNAWVFGGGTKLTVL
With B4, in [1], the “max. signal (% of 22G2)” value is 103 % of 22G2. Further, the “Elisa OD450” value in assay [2] is 1.99 OD450; in assay [3] it was 0.947 OD450; in [4], 1.53 OD450. In assay [5], this molecule returned an MFI of 9950 MFI. For the same molecule, the dissociation constant Kd in assay [6] is 0.0267 nM; in assay [7], 6.96 nM; in assay [8], 5.5 nM.

B5: 43645p1.D3 (scFv, V domains shown)
VH: EVQLLESGGGLVQPGGSLRLSCAASGFTFSSYWMSWVRQAPGKGLEWVSGIHISDSTYYADSVKGRFTISRDNSKNTLYLQMNSLRAEDTAVYYCAKGHTVLQYGMDVWGQGTTVTVSS
VL: QSGLTQPPSASGTPGQRVTISCSGDISNTRNNYVSWYQQLPGTAPKLLIYGNHQRPSGVPDRFSGSKSATSASLAISGLQSEDEADYYCGTWDNTLNAWVFGGGTKLTVL
On to B5, for which the “max. signal (% of 22G2)” value in assay [1] is 115 % of 22G2. For the same molecule, the “Elisa OD450” value is 2.13 OD450 in assay [2], 1.9 OD450 in assay [3] and 1.74 OD450 in [4]. In assay [5], the MFI was 9350 MFI. The Kd turned out to be 0.0171 nM in assay [6], 19 nM in assay [9] and 0.32 nM in [8].

B6: 43645p1.D1 (scFv, V domains shown)
VH: EVQLLESGGDLVQSGGSLRLSCAASGFSFWGYAMTWVRQAPGKGLEWVSTIAGNSYTYYADSVKGRFTISRDNSKNMVYLQMNGLRAEDTAVYYCAKDRSFYNYYDIDVWGQGTTVTVSS
VL: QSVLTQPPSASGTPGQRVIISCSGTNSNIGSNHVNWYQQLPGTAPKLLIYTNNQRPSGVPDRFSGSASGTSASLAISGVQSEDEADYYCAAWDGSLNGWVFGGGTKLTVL
As to B6, in assay [1], the “max. signal (% of 22G2)” value was 111 % of 22G2. The “Elisa OD450” value stood at 2.02 OD450 in [2], 0.047 OD450 in assay [3] and 1.51 OD450 in assay [4]. In assay [5], this molecule gave an MFI of 9250 MFI. In addition, the Kd in assay [6] was 0.343 nM; in assay [7], 17.6 nM; in [9] it was 14 nM; in assay [8] it was 2.9 nM.

B7: 43645p1.D8 (scFv, V domains shown)
VH: EVQLLESGGDLVQSGGSLRLSCAASGFSFWGYAMTWVRQAPGKGLEWVSTIAGNSYAYYADSVKGRFTISRDNSKNMVYLQMNGLRAEDTAVYYCAKDRSFYNYYDIDVWGQGTTVTVSS
VL: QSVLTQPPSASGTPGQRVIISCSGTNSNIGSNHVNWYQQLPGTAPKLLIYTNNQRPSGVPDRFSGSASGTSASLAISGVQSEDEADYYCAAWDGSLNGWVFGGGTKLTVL
With B7, in assay [1], the “max. signal (% of 22G2)” value is 108 % of 22G2. In addition, the “Elisa OD450” value in assay [2] was found to be 1.77 OD450; in assay [3] it was 0.053 OD450; in assay [4], 1.36 OD450. For the same molecule, the MFI in [5] came to 10300 MFI. Further, the figures for the dissociation constant (Kd) in [6], in [7] and in assay [8] were 0.416 nM, 24.5 nM and 1.9 nM, respectively.

B8: 43586p1.2.B2 (scFv, V domains shown)
VH: EMQLLESGGGLVQPGGSLRLSCAASGFTFDDYVMSWVRQAPGKGLEWVSLINWNGDKTYYADSVKGRFTISRDNSKNTLYLQMNSLRAEDTAIYYCAKHWIVFQYGMDVWGQGTTVTVSS
VL: QSVLTQPPSASGTPGQRVTISCSGSISNIETKYVSWYQQLPGTAPKLLIYNSDQRPSGVPDRFSGSKSGTSASLAISGLQSEDEADYYCVSWDASLKSWVFGGGTKLTVL
On to B8, for which, in assay [1], the “max. signal (% of 22G2)” value was 121 % of 22G2. Besides, the “Elisa OD450” value in assay [2] worked out at 2.06 OD450; in [3] it was 2.01 OD450; in [4], 1.57 OD450. The molecule further gave an MFI in assay [5] of 9270 MFI. The Kd in assay [6] turned out to be 0.245 nM; in [10], 3.28 nM; in [7] it was 14.3 nM; in assay [9] it was 1.3 nM; in assay [8], 1.8 nM.

B9: 43586p2.G10 (scFv, V domains shown)
VH: EVQLLESGGGLVQPGGSLRLSCAASGFTFDDYVMSWVRQAPGKGLEWVSLINWSGGTTYYADSVKGRFTISRDNSKNTLYLQMNSLRAEDTAVYYCAKHWIVYQYGMDVWGQGTTVTVSS
VL: QSVLTQPSSASGTPGQRVTISCSGTISNIETKYVSWYKYVSWYQQLPGTAPKLLIYNNVQRPSGVPDRFSGSQSGTSASLAISGLQSEDEAHYYCASWEGGLNSWVFGGGTKLTVL
Consider B9, for which the “max. signal (% of 22G2)” value in assay [1] is 99 % of 22G2. Besides, the “Elisa OD450” value turned out to be 2.21 OD450 in assay [2], 2.23 OD450 in [3] and 1.83 OD450 in assay [4]. For the same molecule, the MFI in assay [5] was found to be 9400 MFI. In addition, the Kd in assay [6] turned out to be 0.267 nM; in assay [10], 3.05 nM; in assay [9], 0.919 nM; in [8], 3.7 nM.

The record behind these values is US20230265187A1 (published 2023).
